# According to publication PMC12416549 (2024):
# Substitutions are numbered along the chain they refer to. Names may count otherwise.
# T1: TNFR1 (Homo sapiens, UniProt P19438)
# T1 chain: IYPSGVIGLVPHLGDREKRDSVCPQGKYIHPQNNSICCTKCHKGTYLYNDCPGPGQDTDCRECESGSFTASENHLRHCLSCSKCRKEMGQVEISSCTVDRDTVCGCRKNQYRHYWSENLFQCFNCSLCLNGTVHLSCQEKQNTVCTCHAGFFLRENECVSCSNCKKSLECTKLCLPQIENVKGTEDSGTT
# B1: L79M (designed binder)
# chain: SMEEEVEKAAKEYEKKKKEAIEKHLEKLKAKDKEAAERFLKELEEAAKEYAKDEAKTMSEEEAKRRAKKYKEKVLLSEMSEEEQKEIKEAEEKLVRTILKYVEEAAK
# B2: L75Q (designed binder)
# chain: B1 chain with L75Q, M79L
# B3: A55Q (designed binder)
# chain: B1 chain with A55Q, M79L
# B4: A35K (designed binder)
# chain: B1 chain with A35K, M79L
# B5: A30T (designed binder)
# chain: B1 chain with A30T, M79L
# B6: E44A (designed binder)
# chain: B1 chain with E44A, M79L
# B7: K71H (designed binder)
# chain: B1 chain with K71H, M79L
# B8: L94Q (designed binder)
# chain: B1 chain with M79L, L94Q
# B9: K52Y (designed binder)
# chain: B1 chain with K52Y, M79L
# B10: L79S (designed binder)
# chain: B1 chain with M79S
# B11: K41M (designed binder)
# chain: B1 chain with K41M, M79L
# B12: K93D (designed binder)
# chain: B1 chain with M79L, K93D
# B13: K18A (designed binder)
# chain: B1 chain with K18A, M79L
# B14: M2Y (designed binder)
# chain: B1 chain with M2Y, M79L
# B15: E81S (designed binder)
# chain: B1 chain with M79L, E81S
# B16: V74W (designed binder)
# chain: B1 chain with V74W, M79L
# B17: A106T (designed binder)
# chain: B1 chain with M79L, A106T
# B18: E34D (designed binder)
# chain: B1 chain with E34D, M79L
# B19: I21K (designed binder)
# chain: B1 chain with I21K, M79L
# B20: K52N (designed binder)
# chain: B1 chain with K52N, M79L
# B21: Y13G (designed binder)
# chain: B1 chain with Y13G, M79L
# B22: K64M (designed binder)
# chain: B1 chain with K64M, M79L
# B23: E86F (designed binder)
# chain: B1 chain with M79L, E86F
# B24: E103A (designed binder)
# chain: B1 chain with M79L, E103A
# B25: H24I (designed binder)
# chain: B1 chain with H24I, M79L
# B26: E104K (designed binder)
# chain: B1 chain with M79L, E104K
# B27: K56F (designed binder)
# chain: B1 chain with K56F, M79L
# B28: R65Q (designed binder)
# chain: B1 chain with R65Q, M79L
# B29: K69C (designed binder)
# chain: B1 chain with K69C, M79L
# B30: K29Y (designed binder)
# chain: B1 chain with K29Y, M79L
# B31: A106P (designed binder)
# chain: B1 chain with M79L, A106P
# B32: R66A (designed binder)
# chain: B1 chain with R66A, M79L
# B33: E92Q (designed binder)
# chain: B1 chain with M79L, E92Q
# B34: T57P (designed binder)
# chain: B1 chain with T57P, M79L
# B35: R66Y (designed binder)
# chain: B1 chain with R66Y, M79L
# B36: L43Y (designed binder)
# chain: B1 chain with L43Y, M79L
# B37: A35Q (designed binder)
# chain: B1 chain with A35Q, M79L
# B38: R96G (designed binder)
# chain: B1 chain with M79L, R96G
# B39: E104L (designed binder)
# chain: B1 chain with M79L, E104L
# B40: Y101K (designed binder)
# chain: B1 chain with M79L, Y101K
# B41: I21Q (designed binder)
# chain: B1 chain with I21Q, M79L
# B42: T97C (designed binder)
# chain: B1 chain with M79L, T97C
# B43: E72I (designed binder)
# chain: B1 chain with E72I, M79L
# B44: E61N (designed binder)
# chain: B1 chain with E61N, M79L
# B45: A63I (designed binder)
# chain: B1 chain with A63I, M79L
# B46: A10N (designed binder)
# chain: B1 chain with A10N, M79L
# B47: A46P (designed binder)
# chain: B1 chain with A46P, M79L
# B48: K23C (designed binder)
# chain: B1 chain with K23C, M79L
# B49: K69T (designed binder)
# chain: B1 chain with K69T, M79L
# B50: R65H (designed binder)
# chain: B1 chain with R65H, M79L
# B51: K88N (designed binder)
# chain: B1 chain with M79L, K88N
# B52: E72S (designed binder)
# chain: B1 chain with E72S, M79L
# B53: I98M (designed binder)
# chain: B1 chain with M79L, I98M
# B54: K27G (designed binder)
# chain: B1 chain with K27G, M79L
# B55: M2D (designed binder)
# chain: B1 chain with M2D, M79L
# B56: K33G (designed binder)
# chain: B1 chain with K33G, M79L
# B57: A106R (designed binder)
# chain: B1 chain with M79L, A106R
# B58: K33A (designed binder)
# chain: B1 chain with K33A, M79L
# B59: E49G (designed binder)
# chain: B1 chain with E49G, M79L
# Molecular target: T1, TNFR1
# Assay: yeast display SC50
row,apparent Kd (screen) [nM],Binder
1,0.79,B1
2,0.49,B2
3,1.54,B3
4,0.49,B4
5,1.16,B5
6,0.956,B6
7,0.593,B7
8,1.16,B8
9,2.48,B9
10,2.73,B10
11,0.446,B11
12,0.446,B12
13,0.79,B13
14,0.49,B14
15,0.79,B15
16,0.49,B16
17,1.54,B17
18,0.718,B18
19,0.446,B19
20,0.869,B20

row,apparent Kd (screen) [nM],Binder
1,2.48,B21
2,0.653,B22
3,1.86,B23
4,0.446,B24
5,2.73,B25
6,0.446,B26
7,3.63,B27
8,0.304,B28
9,2.48,B29
10,0.956,B30
11,0.653,B31
12,20.2,B32
13,6.43,B33
14,6.43,B34
15,13.8,B35
16,5.84,B36
17,0.869,B37
18,2.73,B38
19,0.49,B39
20,0.446,B40

row,apparent Kd (screen) [nM],Binder
1,0.49,B41
2,0.79,B42
3,0.718,B43
4,1.4,B44
5,4.83,B45
6,2.48,B46
7,11.4,B47
8,0.49,B48
9,2.05,B49
10,1.54,B50
11,0.446,B51
12,2.73,B52
13,5.31,B53
14,0.79,B54
15,0.446,B55
16,1.16,B56
17,3,B57
18,0.49,B58
19,9.41,B59
